# Biological target: T1, HLA-E (HLA-E*01033-transfected K562) (Homo sapiens, UniProt P13747)
# T1 construct: expressed in transfected cells; host or cells: K562 (K562/HLA-E, kept under G-418 selection)
# Assay: Peptide-HLA molecule binding assay (HLA-E stabilization)
# Conditions: HLA-E Transfected K562 pulsed overnight at 26° C.
# Description: Peptide binding was assessed by HLA-E stabilization assays using HLA-E*01033-transfected derivative of K562 (K562/HLA-E) cell lines. Briefly, cells were re-suspended in serum-free medium at 1×10^6 cells/ml. Where appropriate, a peptide (see Table 1) was added. After overnight incubation at 26° C., cells were washed with PBS to remove free peptides. Next, HLA surface expression was monitored after staining with anti-HLA-E mAb. Analysis was done on a FACScalibur cytometer (BD Biosciences). Results are presented as the MFI of cells stained with anti-HLA-E mAb.
row,Sequence,"MFI (HLA-E surface expression, anti-HLA-E mAb)"
1,TALSEGATP (MHCIb/E-binding antigen),8530
2,RMYSPVSIL (MHCIb/E-binding antigen),8240
3,VMATRRNVL (MBt derived peptide) [reference compound],7523
4,RIRTWKSLV (HIV-1 Pol derived peptide; MHCIb/E-binding antigen),6580
5,PEIVIYDYM (HIV-1 Pol derived peptide; MHCIb/E-binding antigen),7320

# — patent publication US11957748B2, “Vaccine to pathogenic immune activation cells during infections” (priority 2019, dated 2024)
